These results are taken from US20150328292A1, “CASPASE POLYPEPTIDES HAVING MODIFIED ACTIVITY AND USES THEREOF” (BELLICUM PHARMACEUTICALS, INC., priority 2014, published 2015).

“Also recorded” adds a separate entry of the source.

To fix the notation:
B1: P318A: chimeric modified caspase-9 polypeptide variant (protein, UniProt P55211 1-416, looked up, variant P318A)
chain: MDEADRRLLRRCRLRLVEELQVDQLWDALLSRELFRPHMIEDIQRAGSGSRRDQARQLIIDLETRGSQALPLFISCLEDTGQDMLASFLRTNRQAAKLSKPTLENLTPVVLRPEIRKPEVLRPETPRPVDIGSGGFGDVGALESLRGNADLAYILSMEPCGHCLIINNVNFCRESGLRTRTGSNIDCEKLRRRFSSLHFMVEVKGDLTAKKMVLALLELAQQDHGALDCCVVVILSHGCQASHLQFPGAVYGTDGCPVSVEKIVNIFNGTSCPSLGGKPKLFFIQACGGEQKDHGFEVASTSPEDESPGSNPEPDATAFQEGLRTFDQLDAISSLPTPSDIFVSYSTFPGFVSWRDPKSGSWYVETLDDIFEQWAHSEDLQSLLLRVANAVSVKGIYKQMPGCFNFLRKKLFFKTS
modifications: chimeric, fused to FKBP12v36
notes: chimeric modified caspase-9 polypeptide variant
B2: F319W: chimeric modified caspase-9 polypeptide variant (protein, UniProt P55211 1-416, looked up, variant F319W)
chain: MDEADRRLLRRCRLRLVEELQVDQLWDALLSRELFRPHMIEDIQRAGSGSRRDQARQLIIDLETRGSQALPLFISCLEDTGQDMLASFLRTNRQAAKLSKPTLENLTPVVLRPEIRKPEVLRPETPRPVDIGSGGFGDVGALESLRGNADLAYILSMEPCGHCLIINNVNFCRESGLRTRTGSNIDCEKLRRRFSSLHFMVEVKGDLTAKKMVLALLELAQQDHGALDCCVVVILSHGCQASHLQFPGAVYGTDGCPVSVEKIVNIFNGTSCPSLGGKPKLFFIQACGGEQKDHGFEVASTSPEDESPGSNPEPDATPWQEGLRTFDQLDAISSLPTPSDIFVSYSTFPGFVSWRDPKSGSWYVETLDDIFEQWAHSEDLQSLLLRVANAVSVKGIYKQMPGCFNFLRKKLFFKTS
modifications: chimeric, fused to FKBP12v36
notes: as for B1
B3: F319A: chimeric modified caspase-9 polypeptide variant (protein, UniProt P55211 1-416, looked up, variant F319A)
chain: MDEADRRLLRRCRLRLVEELQVDQLWDALLSRELFRPHMIEDIQRAGSGSRRDQARQLIIDLETRGSQALPLFISCLEDTGQDMLASFLRTNRQAAKLSKPTLENLTPVVLRPEIRKPEVLRPETPRPVDIGSGGFGDVGALESLRGNADLAYILSMEPCGHCLIINNVNFCRESGLRTRTGSNIDCEKLRRRFSSLHFMVEVKGDLTAKKMVLALLELAQQDHGALDCCVVVILSHGCQASHLQFPGAVYGTDGCPVSVEKIVNIFNGTSCPSLGGKPKLFFIQACGGEQKDHGFEVASTSPEDESPGSNPEPDATPAQEGLRTFDQLDAISSLPTPSDIFVSYSTFPGFVSWRDPKSGSWYVETLDDIFEQWAHSEDLQSLLLRVANAVSVKGIYKQMPGCFNFLRKKLFFKTS
modifications: chimeric, fused to FKBP12v36
notes: as for B1
B4: T317C: chimeric modified caspase-9 polypeptide variant (protein)
chain: VDGFGDVGALESLRGNADLAYILSMEPCGHCLIINNVNFCRESGLRTRTGSNIDCEKLRRRFSSLHFMVEVKGDLTAKKMVLALLELARQDHGALDCCVVVILSHGCQASHLQFPGAVYGTDGCPVSVEKIVNIFNGTSCPSLGGKPKLFFIQACGGEQKDHGFEVASTSPEDESPGSNPEPDACPFQEGLRTFDQLDAISSLPTPSDIFVSYSTFPGFVSWRDPKSGSWYVETLDDIFEQWAHSEDLQSLLLRVANAVSVKGIYKQMPGCFNFLRKKLFFKTSASRA
B5: D330S: chimeric modified caspase-9 polypeptide variant (protein)
chain: VDGFGDVGALESLRGNADLAYILSMEPCGHCLIINNVNFCRESGLRTRTGSNIDCEKLRRRFSSLHFMVEVKGDLTAKKMVLALLELARQDHGALDCCVVVILSHGCQASHLQFPGAVYGTDGCPVSVEKIVNIFNGTSCPSLGGKPKLFFIQACGGEQKDHGFEVASTSPEDESPGSNPEPDATPFQEGLRTFDQLSAISSLPTPSDIFVSYSTFPGFVSWRDPKSGSWYVETLDDIFEQWAHSEDLQSLLLRVANAVSVKGIYKQMPGCFNFLRKKLFFKTSASRA
B6: A316G: chimeric modified caspase-9 polypeptide variant (protein)
chain: VDGFGDVGALESLRGNADLAYILSMEPCGHCLIINNVNFCRESGLRTRTGSNIDCEKLRRRFSSLHFMVEVKGDLTAKKMVLALLELARQDHGALDCCVVVILSHGCQASHLQFPGAVYGTDGCPVSVEKIVNIFNGTSCPSLGGKPKLFFIQACGGEQKDHGFEVASTSPEDESPGSNPEPDGTPFQEGLRTFDQLDAISSLPTPSDIFVSYSTFPGFVSWRDPKSGSWYVETLDDIFEQWAHSEDLQSLLLRVANAVSVKGIYKQMPGCFNFLRKKLFFKTSASRA
B7: D330G: chimeric modified caspase-9 polypeptide variant (protein)
chain: VDGFGDVGALESLRGNADLAYILSMEPCGHCLIINNVNFCRESGLRTRTGSNIDCEKLRRRFSSLHFMVEVKGDLTAKKMVLALLELARQDHGALDCCVVVILSHGCQASHLQFPGAVYGTDGCPVSVEKIVNIFNGTSCPSLGGKPKLFFIQACGGEQKDHGFEVASTSPEDESPGSNPEPDATPFQEGLRTFDQLGAISSLPTPSDIFVSYSTFPGFVSWRDPKSGSWYVETLDDIFEQWAHSEDLQSLLLRVANAVSVKGIYKQMPGCFNFLRKKLFFKTSASRA
B8: D330V: chimeric modified caspase-9 polypeptide variant (protein)
chain: VDGFGDVGALESLRGNADLAYILSMEPCGHCLIINNVNFCRESGLRTRTGSNIDCEKLRRRFSSLHFMVEVKGDLTAKKMVLALLELARQDHGALDCCVVVILSHGCQASHLQFPGAVYGTDGCPVSVEKIVNIFNGTSCPSLGGKPKLFFIQACGGEQKDHGFEVASTSPEDESPGSNPEPDATPFQEGLRTFDQLVAISSLPTPSDIFVSYSTFPGFVSWRDPKSGSWYVETLDDIFEQWAHSEDLQSLLLRVANAVSVKGIYKQMPGCFNFLRKKLFFKTSASRA
B9: T317S: chimeric modified caspase-9 polypeptide variant (protein)
chain: VDGFGDVGALESLRGNADLAYILSMEPCGHCLIINNVNFCRESGLRTRTGSNIDCEKLRRRFSSLHFMVEVKGDLTAKKMVLALLELARQDHGALDCCVVVILSHGCQASHLQFPGAVYGTDGCPVSVEKIVNIFNGTSCPSLGGKPKLFFIQACGGEQKDHGFEVASTSPEDESPGSNPEPDASPFQEGLRTFDQLDAISSLPTPSDIFVSYSTFPGFVSWRDPKSGSWYVETLDDIFEQWAHSEDLQSLLLRVANAVSVKGIYKQMPGCFNFLRKKLFFKTSASRA
B10: T317A: chimeric modified caspase-9 polypeptide variant (protein)
chain: VDGFGDVGALESLRGNADLAYILSMEPCGHCLIINNVNFCRESGLRTRTGSNIDCEKLRRRFSSLHFMVEVKGDLTAKKMVLALLELARQDHGALDCCVVVILSHGCQASHLQFPGAVYGTDGCPVSVEKIVNIFNGTSCPSLGGKPKLFFIQACGGEQKDHGFEVASTSPEDESPGSNPEPDAAPFQEGLRTFDQLDAISSLPTPSDIFVSYSTFPGFVSWRDPKSGSWYVETLDDIFEQWAHSEDLQSLLLRVANAVSVKGIYKQMPGCFNFLRKKLFFKTSASRA
B11: D330N: chimeric modified caspase-9 polypeptide variant (protein)
chain: VDGFGDVGALESLRGNADLAYILSMEPCGHCLIINNVNFCRESGLRTRTGSNIDCEKLRRRFSSLHFMVEVKGDLTAKKMVLALLELARQDHGALDCCVVVILSHGCQASHLQFPGAVYGTDGCPVSVEKIVNIFNGTSCPSLGGKPKLFFIQACGGEQKDHGFEVASTSPEDESPGSNPEPDATPFQEGLRTFDQLNAISSLPTPSDIFVSYSTFPGFVSWRDPKSGSWYVETLDDIFEQWAHSEDLQSLLLRVANAVSVKGIYKQMPGCFNFLRKKLFFKTSASRA

For the experiment, the system named is HEK293T/16 cells. The experiment is described as follows: SEAP reporter-based surrogate killing assay (basal activity and AP1903 IC50). Format: cell-based, human. As to conditions: AP1903-independent SEAP activity, vs wild type. On the procedure: FIG. 45 provides a schematic of an analysis of SEAP assays. […] of the mixture was seeded onto each well of a 96-well plate. […] For the assay, 4-methylumbelliferyl phosphate substrate was hydrolyzed by SEAP to 4-methylumbelliferon, a metabolite that can be excited with 364 nm and detected with an emission filter of 448 nm. Since SEAP is used as a marker for cell viability, reduced SEAP reading corresponds with increased icaspase-9 activities.
Early passage HEK293T/16 cells (ATCC, Manassas, Va.) were maintained in IMDM, GlutaMAX™ (Life Technologies, Carlsbad, Calif.) supplemented with 10% FBS, 100 U/mL penicillin, and 100 […] until transfection in a humidified, 37° C., 5% CO2/95% air atmosphere. Cells in logarithmic-phase growth were transiently transfected with 800 ng to 2 μg of expression plasmid encoding iCasp9 mutants and 500 ng of an expression plasmid encoding SRα promoter driven SEAP per million cells in 15-mL conical tubes. […] GeneJammer® Transfection Reagent at a ratio of 3 μl per ug of plasmid DNA was used to transiently transfect HEK293T/16 cells in the absence of antibiotics. 100 μl or 2 mL of the transfection mixture was added to each well in 96-well or 6-well plate, respectively.
Briefly, after 65° C. heat denaturation for 45 minutes to reduce background caused by endogenous (and serum-derived) alkaline phosphatases that are sensitive to heat, 5 μl of supernatants was added to 95 μl of PBS and added to 100 μl of substrate buffer, containing 1 μl of 100 mM 4-methylumbelliferyl phosphate (4-MUP; Sigma, St. Louis, Mo.) re-suspended in 2 M diethanolamine. Hydrolysis of 4-MUP by SEAP produces a fluorescent […] with excitation/emission (355/460 nm), which can be easily measured. Assays were performed in black opaque 96-well plates to minimize fluorescence leakage between wells (FIG. 45).
As for B1, the “basal activity / basal signaling (in words)” value is given as “no effect”.

Consider B2, for which the “basal activity / basal signaling (in words)” value is recorded as “lower basal activity”.

Regarding B3, the “basal activity / basal signaling (in words)” value is “no effect”.

With B4, the “basal activity / basal signaling (in words)” value is “no effect”.

On to B5, for which the “basal activity / basal signaling (in words)” value was “less basal activity than wild type caspase-9; also recorded: statistically lower basal signaling”.

For B6, the “basal activity / basal signaling (in words)” value is recorded as “lower basal activity”.

B7: the “basal activity / basal signaling (in words)” value is listed as “less basal activity than wild type caspase-9”.

For the molecule B8, the “basal activity / basal signaling (in words)” value was “less basal activity than wild type caspase-9”.

Take B9: the “basal activity / basal signaling (in words)” value is recorded as “lower basal activity; also recorded: reduce basal activity; also recorded: decrease in basal activity”.

For the molecule B10, the “basal activity / basal signaling (in words)” value was “lower basal activity; also recorded: reduce basal activity; also recorded: decrease in basal activity”.

For B11, the “basal activity / basal signaling (in words)” value is on record as “less basal activity than wild type caspase-9”.
